# Experimental data: US20250339531A1, “DUX4 POLYPEPTIDES AND NUCLEIC ACIDS FOR TREATING INFLAMMATORY AND AUTOIMMUNE CONDITIONS” (Fred Hutchinson Cancer Center, priority 2021, published 2025)
# Assays:
# Test in all cases: anti-FLAG co-IP LC-MS, exp 3, +IFNg +Dox
# [1] = molecular target: 40S ribosomal protein S3a (Homo sapiens) (UniProt P61247)
# [2] = molecular target: 40S ribosomal protein S6 (Homo sapiens) (UniProt P62753)
# [3] = molecular target: 4F2 cell-surface antigen heavy chain (Homo sapiens) (UniProt P08195)
# [4] = molecular target: 60 kDa heat shock protein, mitochondrial (Homo sapiens) (UniProt P10809)
# [5] = molecular target: 60S acidic ribosomal protein P0 (Homo sapiens) (UniProt P05388)
# [6] = molecular target: 60S ribosomal protein L11 (Homo sapiens) (UniProt P62913)
# [7] = molecular target: 60S ribosomal protein L18 (Fragment) (Homo sapiens) (UniProt Q07020)
# [8] = molecular target: 60S ribosomal protein L29 (Homo sapiens) (UniProt P47914)
# [9] = molecular target: 60S ribosomal protein L3 (Homo sapiens) (UniProt P39023)
# [10] = molecular target: Dolichyl-diphosphooligosaccharide--protein glycosyltransferase subunit 1 (Homo sapiens) (UniProt P04843)
# [11] = molecular target: Elongation factor 1-gamma (Homo sapiens) (UniProt P26641)
# [12] = molecular target: Endoplasmic reticulum chaperone BiP (Homo sapiens) (UniProt P11021)
# [13] = molecular target: Eukaryotic translation initiation factor 3 subunit A (Homo sapiens) (UniProt Q14152)
# Chain of Eukaryotic translation initiation factor 3 subunit A (Homo sapiens) (Q14152 2-1382 limits assumed): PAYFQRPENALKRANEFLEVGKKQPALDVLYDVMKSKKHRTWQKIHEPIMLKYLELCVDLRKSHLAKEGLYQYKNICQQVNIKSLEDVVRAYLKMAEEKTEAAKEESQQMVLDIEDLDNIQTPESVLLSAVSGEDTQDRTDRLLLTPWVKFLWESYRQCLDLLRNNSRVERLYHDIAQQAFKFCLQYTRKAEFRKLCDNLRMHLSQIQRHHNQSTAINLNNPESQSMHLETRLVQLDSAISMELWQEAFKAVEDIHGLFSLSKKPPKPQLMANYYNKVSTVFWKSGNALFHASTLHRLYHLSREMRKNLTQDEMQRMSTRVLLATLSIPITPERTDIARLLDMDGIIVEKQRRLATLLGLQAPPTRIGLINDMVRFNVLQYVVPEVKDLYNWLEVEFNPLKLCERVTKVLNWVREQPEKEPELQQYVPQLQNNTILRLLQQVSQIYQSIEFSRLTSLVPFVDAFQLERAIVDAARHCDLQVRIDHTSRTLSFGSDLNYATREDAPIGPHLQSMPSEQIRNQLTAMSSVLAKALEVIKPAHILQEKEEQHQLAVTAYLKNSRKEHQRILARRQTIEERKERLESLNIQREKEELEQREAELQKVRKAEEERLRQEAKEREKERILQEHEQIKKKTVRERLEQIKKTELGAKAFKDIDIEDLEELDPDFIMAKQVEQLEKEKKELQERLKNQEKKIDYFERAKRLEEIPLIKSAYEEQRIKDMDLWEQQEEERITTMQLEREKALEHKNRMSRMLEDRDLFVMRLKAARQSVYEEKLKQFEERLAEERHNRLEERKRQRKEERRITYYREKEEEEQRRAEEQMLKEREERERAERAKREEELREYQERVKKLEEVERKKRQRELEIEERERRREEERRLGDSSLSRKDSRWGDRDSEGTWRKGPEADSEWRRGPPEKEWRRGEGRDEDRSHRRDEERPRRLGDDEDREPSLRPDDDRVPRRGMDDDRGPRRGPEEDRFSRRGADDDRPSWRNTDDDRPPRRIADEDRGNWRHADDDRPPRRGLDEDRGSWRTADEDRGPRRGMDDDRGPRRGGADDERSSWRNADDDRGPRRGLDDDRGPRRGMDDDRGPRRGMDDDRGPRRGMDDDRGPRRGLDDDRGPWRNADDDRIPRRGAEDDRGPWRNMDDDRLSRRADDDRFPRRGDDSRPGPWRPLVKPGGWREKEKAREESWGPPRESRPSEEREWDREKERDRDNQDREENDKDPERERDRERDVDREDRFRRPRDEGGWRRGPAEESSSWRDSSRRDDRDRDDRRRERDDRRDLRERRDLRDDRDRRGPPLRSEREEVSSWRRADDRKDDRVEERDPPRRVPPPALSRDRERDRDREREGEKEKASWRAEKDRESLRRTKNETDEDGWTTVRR
# [14] = molecular target: Heat shock 70 kDa protein 1B (Homo sapiens) (UniProt P0DMV9)
# [15] = molecular target: Heat shock cognate 71 kDa protein (Homo sapiens) (UniProt P11142)
# [16] = molecular target: Heat shock protein HSP 90-alpha (Homo sapiens) (UniProt P07900)
# [17] = molecular target: Histone acetyltransferase type B catalytic subunit (Homo sapiens) (UniProt O14929)
# [18] = molecular target: Junctional sarcoplasmic reticulum protein 1 (Homo sapiens) (UniProt Q96MG2)
# [19] = molecular target: Myosin regulatory light chain 12A (Homo sapiens) (UniProt J3QRS3)
# Chain of Myosin regulatory light chain 12A (Homo sapiens) (J3QRS3 entry or part of it limits assumed, form in doubt): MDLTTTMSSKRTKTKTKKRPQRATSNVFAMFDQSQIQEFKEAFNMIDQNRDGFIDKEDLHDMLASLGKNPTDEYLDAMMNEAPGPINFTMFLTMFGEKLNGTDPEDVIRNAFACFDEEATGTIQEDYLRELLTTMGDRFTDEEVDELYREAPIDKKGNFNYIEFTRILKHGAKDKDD
# Myosin-9 (Homo sapiens) = Myosin-9 (Homo sapiens) (UniProt P35579)
# [20] = molecular target: Neuroblast differentiation-associated protein AHNAK (Homo sapiens) (UniProt Q09666)
# [21] = molecular target: Neutral cholesterol ester hydrolase 1 (Homo sapiens) (UniProt Q6PIU2)
# [22] = molecular target: Nucleosome assembly protein 1-like 1 (Homo sapiens) (UniProt P55209)
# Chain of Nucleosome assembly protein 1-like 1 (Homo sapiens) (P55209 2-388 limits assumed): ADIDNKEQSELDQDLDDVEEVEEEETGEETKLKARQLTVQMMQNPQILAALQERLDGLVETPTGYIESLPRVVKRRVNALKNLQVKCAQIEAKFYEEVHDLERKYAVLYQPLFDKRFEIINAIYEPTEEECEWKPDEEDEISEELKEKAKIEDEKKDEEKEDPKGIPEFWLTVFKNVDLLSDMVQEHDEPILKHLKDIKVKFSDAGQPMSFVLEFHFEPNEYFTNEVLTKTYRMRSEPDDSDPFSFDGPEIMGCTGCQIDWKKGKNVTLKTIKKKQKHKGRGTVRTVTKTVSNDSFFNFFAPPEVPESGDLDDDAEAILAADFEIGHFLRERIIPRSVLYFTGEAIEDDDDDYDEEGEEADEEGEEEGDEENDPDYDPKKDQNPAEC
# [23] = molecular target: Plasminogen activator inhibitor 1 RNA-binding protein (Homo sapiens) (UniProt Q8NC51)
# [24] = molecular target: Prelamin-A/C (Homo sapiens) (UniProt P02545)
# Chain of Prelamin-A/C (Homo sapiens) (P02545 1-646 limits assumed): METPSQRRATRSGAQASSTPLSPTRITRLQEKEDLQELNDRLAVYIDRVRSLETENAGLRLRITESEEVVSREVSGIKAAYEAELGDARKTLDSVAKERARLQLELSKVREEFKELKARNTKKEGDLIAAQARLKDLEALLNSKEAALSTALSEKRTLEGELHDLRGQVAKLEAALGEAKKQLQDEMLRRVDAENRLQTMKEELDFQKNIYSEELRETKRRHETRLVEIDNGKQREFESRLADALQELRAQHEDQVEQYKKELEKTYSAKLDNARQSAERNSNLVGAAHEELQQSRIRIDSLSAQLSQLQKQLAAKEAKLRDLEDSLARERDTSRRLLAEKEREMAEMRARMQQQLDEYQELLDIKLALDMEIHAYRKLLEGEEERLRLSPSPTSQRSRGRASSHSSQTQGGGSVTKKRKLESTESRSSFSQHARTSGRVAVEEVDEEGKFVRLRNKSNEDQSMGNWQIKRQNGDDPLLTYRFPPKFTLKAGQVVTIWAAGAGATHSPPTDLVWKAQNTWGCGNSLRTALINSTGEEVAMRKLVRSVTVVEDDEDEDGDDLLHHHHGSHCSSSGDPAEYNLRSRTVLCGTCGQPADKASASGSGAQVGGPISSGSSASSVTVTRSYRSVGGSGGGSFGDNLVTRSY
# [25] = molecular target: Probable ubiquitin carboxyl-terminal hydrolase FAF-X (Homo sapiens) (UniProt Q93008)
# [26] = molecular target: Procollagen-lysine, 2-oxoglutarate 5-dioxygenase 3 (Homo sapiens) (UniProt O60568)
# [27] = molecular target: Protease serine 2 preproprotein (Homo sapiens) (UniProt A6XMV9)
# Chain of Protease serine 2 preproprotein (Homo sapiens) (A6XMV9 entry or part of it limits assumed, form in doubt): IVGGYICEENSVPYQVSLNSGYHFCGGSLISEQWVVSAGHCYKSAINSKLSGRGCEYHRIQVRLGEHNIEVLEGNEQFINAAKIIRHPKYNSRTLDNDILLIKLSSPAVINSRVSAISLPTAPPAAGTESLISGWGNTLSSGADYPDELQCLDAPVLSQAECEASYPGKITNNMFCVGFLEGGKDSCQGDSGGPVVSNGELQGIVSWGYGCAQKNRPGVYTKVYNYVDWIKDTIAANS
# [28] = molecular target: Ras GTPase-activating protein-binding protein 1 (Homo sapiens) (UniProt Q13283)
# [29] = molecular target: Ras GTPase-activating protein-binding protein 2 (Homo sapiens) (UniProt Q9UN86)
# Chain of Ras GTPase-activating protein-binding protein 2 (Homo sapiens) (Q9UN86 2-482 limits assumed): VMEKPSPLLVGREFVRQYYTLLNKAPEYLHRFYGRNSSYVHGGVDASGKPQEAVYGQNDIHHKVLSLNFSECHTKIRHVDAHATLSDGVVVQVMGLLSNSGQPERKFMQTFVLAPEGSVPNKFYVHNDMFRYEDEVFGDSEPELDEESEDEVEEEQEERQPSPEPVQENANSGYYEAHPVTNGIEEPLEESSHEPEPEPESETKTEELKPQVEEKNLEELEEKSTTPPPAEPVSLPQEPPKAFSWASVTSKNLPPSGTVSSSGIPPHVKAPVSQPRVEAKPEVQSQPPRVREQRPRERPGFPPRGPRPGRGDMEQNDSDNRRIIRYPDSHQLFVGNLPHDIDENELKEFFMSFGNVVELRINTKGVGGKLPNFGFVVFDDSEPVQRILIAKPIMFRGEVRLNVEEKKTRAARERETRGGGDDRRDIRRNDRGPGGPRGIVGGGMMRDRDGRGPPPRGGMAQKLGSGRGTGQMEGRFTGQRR
# [30] = molecular target: Reticulon-4 (Homo sapiens) (UniProt Q9NQC3)
# Chain of Reticulon-4 (Homo sapiens) (Q9NQC3 whole entry): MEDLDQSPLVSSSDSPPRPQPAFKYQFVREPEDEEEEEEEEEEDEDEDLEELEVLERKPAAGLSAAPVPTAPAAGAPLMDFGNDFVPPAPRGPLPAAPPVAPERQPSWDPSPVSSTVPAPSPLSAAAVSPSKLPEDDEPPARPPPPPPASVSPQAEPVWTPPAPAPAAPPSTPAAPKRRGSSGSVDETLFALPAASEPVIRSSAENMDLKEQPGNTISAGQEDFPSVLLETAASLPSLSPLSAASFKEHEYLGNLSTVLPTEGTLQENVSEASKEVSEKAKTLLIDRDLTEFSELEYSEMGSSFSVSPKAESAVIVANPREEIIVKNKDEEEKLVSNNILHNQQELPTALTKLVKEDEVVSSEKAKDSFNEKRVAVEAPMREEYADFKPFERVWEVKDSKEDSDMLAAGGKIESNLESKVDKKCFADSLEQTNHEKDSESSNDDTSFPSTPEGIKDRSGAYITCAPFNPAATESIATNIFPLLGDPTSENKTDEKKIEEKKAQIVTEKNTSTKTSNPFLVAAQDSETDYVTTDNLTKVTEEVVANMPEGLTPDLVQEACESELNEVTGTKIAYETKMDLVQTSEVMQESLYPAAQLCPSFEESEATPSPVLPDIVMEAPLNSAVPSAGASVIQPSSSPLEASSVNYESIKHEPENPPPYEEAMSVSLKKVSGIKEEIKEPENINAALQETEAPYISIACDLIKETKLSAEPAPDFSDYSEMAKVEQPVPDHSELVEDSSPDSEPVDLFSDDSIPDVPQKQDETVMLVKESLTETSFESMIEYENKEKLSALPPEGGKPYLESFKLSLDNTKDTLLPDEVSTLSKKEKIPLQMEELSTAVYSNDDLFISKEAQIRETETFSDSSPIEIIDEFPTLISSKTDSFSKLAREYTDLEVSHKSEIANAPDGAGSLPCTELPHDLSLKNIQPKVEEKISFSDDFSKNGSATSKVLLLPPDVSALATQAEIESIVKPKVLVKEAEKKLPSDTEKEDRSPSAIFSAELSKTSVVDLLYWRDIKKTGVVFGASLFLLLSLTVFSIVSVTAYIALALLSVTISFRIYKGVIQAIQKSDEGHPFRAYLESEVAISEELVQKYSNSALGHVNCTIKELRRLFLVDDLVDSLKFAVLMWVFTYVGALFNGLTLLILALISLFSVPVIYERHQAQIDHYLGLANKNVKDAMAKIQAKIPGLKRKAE
# [31] = molecular target: Sodium/potassium-transporting ATPase subunit alpha-1 (Homo sapiens) (UniProt P05023)
# [32] = molecular target: Spectrin alpha chain, non-erythrocytic 1 (Homo sapiens) (UniProt Q13813)
# [33] = molecular target: Tubulin alpha-4A chain (Homo sapiens) (UniProt P68366)
# [34] = molecular target: Tubulin beta chain (Homo sapiens) (UniProt P07437)
# [35] = molecular target: Y-box-binding protein 3 (Homo sapiens) (UniProt P16989)
# Chain of Y-box-binding protein 3 (Homo sapiens) (P16989 2-372 limits assumed): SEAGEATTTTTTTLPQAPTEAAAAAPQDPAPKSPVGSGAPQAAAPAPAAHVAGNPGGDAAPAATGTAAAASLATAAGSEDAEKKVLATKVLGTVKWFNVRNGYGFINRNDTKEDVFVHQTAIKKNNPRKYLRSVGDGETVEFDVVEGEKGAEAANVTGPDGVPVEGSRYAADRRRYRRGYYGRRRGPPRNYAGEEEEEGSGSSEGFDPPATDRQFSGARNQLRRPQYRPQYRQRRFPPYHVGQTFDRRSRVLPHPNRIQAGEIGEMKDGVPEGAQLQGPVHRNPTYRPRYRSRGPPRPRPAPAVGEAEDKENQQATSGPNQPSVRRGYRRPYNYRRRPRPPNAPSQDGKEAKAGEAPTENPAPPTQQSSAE
substance,measurement,setting,value
i3XFLAG-NLS-CTDaa154-424,PSMs,[1],5 PSMs
same,PSMs,[2],3 PSMs
same,PSMs,[3],2 PSMs
same,PSMs,[4],2 PSMs
same,PSMs,[5],5 PSMs
same,PSMs,[6],2 PSMs
same,PSMs,[7],5 PSMs
same,PSMs,[8],2 PSMs
same,PSMs,[9],11 PSMs
same,PSMs,[10],14 PSMs
same,PSMs,[11],6 PSMs
same,PSMs,[12],62 PSMs
same,PSMs,[13],2 PSMs
same,PSMs,[14],10 PSMs
same,PSMs,[15],54 PSMs
same,PSMs,[16],9 PSMs
same,PSMs,[17],3 PSMs
same,PSMs,[18],10 PSMs
same,PSMs,[19],3 PSMs
same,PSMs,Myosin-9 (Homo sapiens),242 PSMs
same,PSMs,[20],4 PSMs
same,PSMs,[21],11 PSMs
same,PSMs,[22],5 PSMs
same,PSMs,[23],3 PSMs
same,PSMs,[24],3 PSMs
same,PSMs,[25],5 PSMs
same,PSMs,[26],2 PSMs
same,PSMs,[27],2 PSMs
same,PSMs,[28],2 PSMs
same,PSMs,[29],3 PSMs
same,PSMs,[30],7 PSMs
same,PSMs,[31],3 PSMs
same,PSMs,[32],10 PSMs
same,PSMs,[33],39 PSMs
same,PSMs,[34],75 PSMs
same,PSMs,[35],3 PSMs
